The record followed here is patent US20020177177A1 (PROLIFIX, published 2002).

In the assay the target is T1, E. coli-produced 6X histidine-tagged cyclin D1 (UniProt P24385 1-295, limits assumed).
T1 construct: also called His-cyclin D1; His-D1; not shown: 6X histidine tag
The assay is described as follows: GST pull-down on glutathione-agarose, anti-cyclin D1 Western blot. As for the experimental part: To ask which domain or motif of SRC-1 is involved in cyclin D1 binding, we generated a series a GST-SRC1 deletion mutants. […] In the in vitro binding assay, the series of GST-containing proteins were incubated with bacterially expressed His-tagged cyclin D1 and immobilized on glutathione-agarose. Cyclin D1 binding was detected by Western blot analysis using anti-cyclin D1 antibody. Binding was not detected to GST alone.

T1 sequence (P24385 whole entry): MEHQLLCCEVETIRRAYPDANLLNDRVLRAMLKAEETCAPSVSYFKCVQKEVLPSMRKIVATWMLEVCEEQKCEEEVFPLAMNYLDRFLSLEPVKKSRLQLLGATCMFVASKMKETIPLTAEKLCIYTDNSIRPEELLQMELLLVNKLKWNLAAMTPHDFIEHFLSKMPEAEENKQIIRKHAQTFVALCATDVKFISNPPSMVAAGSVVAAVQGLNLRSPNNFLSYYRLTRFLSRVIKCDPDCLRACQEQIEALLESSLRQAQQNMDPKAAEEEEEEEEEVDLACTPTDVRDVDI

B1: GST-SRC1 361-568 (other, human, UniProt Q15788 361-568, looked up)
chain: IHIIDREHSGLSPQDDTNSGMSIPRVNPSVNPSISPAHGVARSSTLPPSNSNMVSTRINRQQSSDLHSSSHSNSSNSQGSFGCSPGSQIVANVALNQGQASSQSSNPSLNLNNSPMEGTGISLAQFMSPRRQVTSGLATRPRMPNNSFPPNISTLSSPVGMTSSACNNNNRSYSNIPVTSLQGMNEGPNNSVGFSASSPVLRQMSSQN
notes: not shown: glutathione-S-transferase (GST) fusion partner
As for B1, the binding result was “no binding”.
